This is an account of results in paper doi:10.1101/2025.10.10.681541, “Visualizing the mechanism of quinol oxidation and inhibition of a bd-type oxidase using cryo-EM” (bioRxiv, 2025).

The target in series [1] is T1, E. coli cytochrome bd-I subunit CydA (E. coli, UniProt P0ABJ9 1-522).
T1 construct: CydA, subunit of E. coli cytochrome bd-I (Ecbd); harbours hemes b558, b595 and d and the Q-loop; Co-expressed and co-purified with CydB, CydX and CydH; never isolated on its own
T1 sequence: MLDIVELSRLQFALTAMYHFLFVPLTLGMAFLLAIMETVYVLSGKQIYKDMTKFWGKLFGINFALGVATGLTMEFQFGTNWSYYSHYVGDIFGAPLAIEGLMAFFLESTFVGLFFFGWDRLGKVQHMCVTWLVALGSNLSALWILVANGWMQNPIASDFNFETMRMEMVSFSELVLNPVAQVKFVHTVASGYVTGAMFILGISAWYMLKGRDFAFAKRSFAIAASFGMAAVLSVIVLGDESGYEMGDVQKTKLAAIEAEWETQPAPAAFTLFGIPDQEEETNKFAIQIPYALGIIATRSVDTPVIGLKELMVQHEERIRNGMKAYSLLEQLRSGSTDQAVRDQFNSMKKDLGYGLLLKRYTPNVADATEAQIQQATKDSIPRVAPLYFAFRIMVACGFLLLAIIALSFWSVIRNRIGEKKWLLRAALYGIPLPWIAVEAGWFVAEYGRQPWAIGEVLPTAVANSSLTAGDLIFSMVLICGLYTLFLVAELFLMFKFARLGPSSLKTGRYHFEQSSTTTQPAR
Description: cryo-EM structure; purified Ecbd in LMNG micelles (unbound, Aurachin D bound) or in MSP1D1 PC nanodiscs doped with 5% menaquinone-9; monomeric and dimeric particles on the same grids. The note with it: both partners purified.

Series [2] concerns the molecule itself. The description is as above.

B1: E. coli cytochrome bd-I subunit CydX (natural protein)
chain: MWYFAWILGTLLACSFGVITALALEHVESGKAGQEDI
notes: CydX, single-helix subunit of E. coli cytochrome bd-I (Ecbd)
For B1, the binding result in series [1] and in series [2] was “binds” in each case.
